Data on 19 molecules can be found in EP4703383A1 (Shenzhen Genuine Biomedical Technology Co., Ltd, dated 2026).

T1: extracellular segment of human PRLR protein with avi-(his)6 tag (hPRLR-ECD-avi-his) (human, UniProt P16471 25-234)
T1 construct: The assays say only 'monomeric human PRLR extracellular domain / ECD'; also called human PRLR extracellular domain; monomeric PRLR ECD
T1 sequence: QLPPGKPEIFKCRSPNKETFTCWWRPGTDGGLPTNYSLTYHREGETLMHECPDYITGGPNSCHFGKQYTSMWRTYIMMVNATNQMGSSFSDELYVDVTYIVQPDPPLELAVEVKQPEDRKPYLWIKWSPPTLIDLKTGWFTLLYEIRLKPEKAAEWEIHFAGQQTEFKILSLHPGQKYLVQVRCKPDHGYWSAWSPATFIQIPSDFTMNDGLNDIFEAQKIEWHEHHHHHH

B1: P-PR-C08H (antibody, V domains shown)
VH: QVQLQQPGSELVRPGASVKLSCKASGFTFTTYWVHWVKQRPGQGLEWIGNISPGSGSTNYDEKFKSKASLTVDTFSNTAYMQLSSLTSEDSAVYYCIRHSGNYFNAMDYWGQGTTVTVSS
VL: DIVMTQAAPSVPVTPGESVSISCRSSKSLLHSNGNTYLYWFLQRPGQSPQLLIYRMSNLASGVPDRFSGSGSGTAFTLRISRVEAEDVGVYYCMQHLEYPLTFGAGTKLELK
notes: also called Antibody No. 6
B2: P-PR-C06H (antibody, V domains shown)
VH: B1 VH with T115S
VL: B1 VL with P12F, R55Q, L59R, F67L, L101F, A105G, L111I
notes: also called Antibody No. 4
B3: P-PR-C02H (antibody, V domains shown)
VH: B1 VH with K19R, T115S
VL: B1 VL with A8T, T14A, S32T, N35Y
notes: also called Antibody No. 1
B4: P-PR-B09W (antibody, V domains shown)
VH: B1 VH with Y32F, S55G, G56T, T115S
VL: B1 VL
notes: also called Antibody No. 10
B5: P-PR-D01H (antibody, V domains shown)
VH: B1 VH with S55G, S84G, V116L
VL: B1 VL
notes: also called Antibody No. 8
B6: P-PR-C05H (antibody, V domains shown)
VH: B1 VH with Y32F, G56T, D61N, S66N, T115S
VL: B1 VL with V90I
notes: also called Antibody No. 3
B7: P-PR-C12H (antibody, V domains shown)
VH: B1 VH with T30A, G56V, V116L
VL: B1 VL with P12L, L52V, L101F
notes: also called Antibody No. 7
B8: P-PR-H07W (antibody, V domains shown)
VH: B1 VH with T30A, G56V, V116L
VL: B1 VL with L101F, A105G, L111I
notes: also called Antibody No. 13
B9: P-PR-C04H (antibody, V domains shown)
VH: B1 VH with S55G
VL: B1 VL with L101F, A105S, L111I
notes: also called Antibody No. 2
B10: P-PR-H11W (antibody, V domains shown)
VH: B1 VH with Y32F, G56T, D61N, S66N, T115S
VL: B1 VL with L101F, A105G, L111I
notes: also called Antibody No. 14
B11: P-PR-H04W (antibody, V domains shown)
VH: B1 VH with T115S
VL: B1 VL with L101F, A105S, L111I
notes: also called Antibody No. 12
B12: P-PR-C04W (antibody, V domains shown)
VH: B1 VH
VL: B1 VL
notes: also called Antibody No. 15
B13: P-PR-G02W (antibody, V domains shown)
VH: B1 VH with V116L
VL: B1 VL
notes: also called Antibody No. 11
B14: HP-PR01D12 (antibody, V domains shown)
VH: EVMLVESGGGLVQPGGSRKLSCAASGFTFSSFGMNWVRQAPEKGLEWVAYISSGSSIIYYADTVKGRFTISRDNPKNTLFLQMTSLRSEDTAMYYCTRFYGYIPFDYWGQGTTLTVSS
VL: DIVMTQSPAIMSASPGEKVTMTCSASSSLIYMHWYQQKSSTSPKLWIYDTSKLASGVPGRFSGSGSGNSYSLTTSSMEAEDVATYYCFQGSGYPLTFGGGTKLEIK
notes: also called Antibody No. 20
B15: HP-PR01C02 (antibody, V domains shown)
VH: DVHLVESGPGLVKPSQSLSLTCTVTGYSITSDYAWNWIRQFPGNKLEWMGYISYSGSTGYSPSLKSRVSITRDTSKNQFFLQLNSVTTEDTATYFCARNNWAFDFWGQGTTLTVSS
VL: DIVLTQSPAIMSASPGEKVTMTCSASSSVNYMHWYQQKSGTSPKRWIYDTSKLASGVPARFSGSGSGTSYSLTISSMEAEDAATYYCQQWSSNPLTFGAGTKLELK
notes: also called Antibody No. 22
B16: H-PR-B06 (antibody, V domains shown)
VH: DVKLVESGGGLVKPGGSLKLACAASGFTFSSYTMSWVRQTPEKRLEWVATISSGGSYTYYPDSVKGRFTISRDNAKNTLYLQLSSLKSEDTAMYYCTRDRYYSTTPDWYFDVWGAGTTVTVSS
VL: DIVLTQSPATLSVTPGDSVSLSCRATQIIFNNLHWYQQKSHESPRLLITYTSQSISGIPSRFSGSGSGTDFTLTINSVETEDFGMYFCQQSNTWPRTFGGGTKLEIK
notes: also called Antibody No. 18
B17: H-PR-B03 (antibody, V domains shown)
VH: QVQLKESGPGLVAPSQSLSITCTVSGFSLTGFGVNWFRQPPGRGLEWLGMIWGDGSTDYNSALKSRLSISKDNSKSQVFLKMNSLQTDDTARYYCARVLYYYGGNSFAYWGQGTLVTVSA
VL: DVLMTQTPLSLPVSLGDQASISCRSSQSIVHSNGNTYLEWYLQKPGQSPKLLIYKVSSRFSGVPDRFSGSGSGTDFTLKISRVEAEDLGVYYCFQGSHVPYTFGGGTKLEIK
notes: also called Antibody No. 17
B18: HP-PR02E11 (antibody, V domains shown)
VH: QVQLQQSGPGLVAPSQSLSITCTVSGFSLTSYGVNWVRQPPGKGLEWLGIIGAGGSTNYNSALMSRLSISKDNSKSQVFLKMNSLQTDDTAMYYCARSLYYYGSSSFAYWGQGTLVTVSA
VL: B17 VL with V2I, L3V, S58N, Y101W, I111L
notes: also called Antibody No. 19
B19: P-PR-D04H (antibody, V domains shown)
VH: QVQLQQPGSELVRPGASVKLSCKASGYTFTSYWMHWVKQRPGQGLEWIGNIYPGSGSTNYDEKFKSKATLTVDTSSSTAYMQLSSLTSEDSAVYYCTRGNYRYYFDYWGQGTTLTVSS
VL: not shown
notes: also called Antibody No. 9

Residue numbers refer to the chain shown, from its start.

One experiment concerns the target T1, extracellular segment of human PRLR …. The experiment can be described thus: BLI (Octet), antibody on Protein A sensor, monomeric PRLR ECD in solution, 1:1 fit. Background: In BLI a coated tip is dipped into the sample, and binding shifts an interference pattern.
For B1, binding was characterised by a dissociation constant (Kd) of 1.77 pM; the koff (in general, the first-order rate constant of dissociation) was 2.44e-07 s⁻¹; the kon (in general, the second-order rate constant of association) was determined as 138000 M⁻¹ s⁻¹.

For B2, binding was characterised by a dissociation constant (Kd) of 2710 pM, the koff worked out at 0.000663 s⁻¹ and the kon came out at 244000 M⁻¹ s⁻¹.

Consider B3, for which the Kd – broadly, a measure of binding affinity in units of concentration – was 1.6 pM; the koff worked out at 2.44e-07 s⁻¹; the kon was 153000 M⁻¹ s⁻¹.

B4: the Kd is 1530 pM, the koff worked out at 0.000287 s⁻¹ and the kon was found to be 187000 M⁻¹ s⁻¹.

Molecule B5 yielded a Kd of 1.05 pM, a koff of 2.44e-07 s⁻¹ and a kon of 232000 M⁻¹ s⁻¹.

As to B6, the Kd was below 1 pM, the koff stood at 1.3e-07 s⁻¹ and the kon turned out to be 209000 M⁻¹ s⁻¹.

For the molecule B7, the Kd is 2700 pM, the koff was 0.00033 s⁻¹ and the kon stood at 122000 M⁻¹ s⁻¹.

For the next experiment the target is unchanged. The experiment can be described thus: ELISA, coated antigen 1 ug/mL, antibody 10 ug/mL.
As to B1, the “absorbance at 450nm” value was 2.2.

Take B2: the “absorbance at 450nm” value was 2.1.

On to B3, for which the “absorbance at 450nm” value was determined as 2.14.

B4: the “absorbance at 450nm” value came out at 2.32.

Take B5: the “absorbance at 450nm” value worked out at 2.02.

Consider B8, for which the “absorbance at 450nm” value came to 2.45.

On to B6, for which the “absorbance at 450nm” value was found to be 2.14.

With B7, the “absorbance at 450nm” value is 2.24.

Take B9: the “absorbance at 450nm” value amounted to 2.15.

Regarding B10, the “absorbance at 450nm” value is 2.32.

In a further experiment the target is T2, recombinant mesothelin protein with the same tag.
T2 construct: Control antigen of the species-specific ELISA; also called Control protein
The experiment can be described thus: ELISA, coated antigen 1 ug/mL, antibody 10 ug/mL. A general note: In an ELISA, binding on a coated surface is turned into a signal by an enzyme label.
Consider B1, for which the “absorbance at 450nm” value worked out at 0.065.

In the case of B11, the “absorbance at 450nm” value is 0.064.

B12: the “absorbance at 450nm” value worked out at 0.095.

As to B13, the “absorbance at 450nm” value worked out at 0.07.

For B2, the “absorbance at 450nm” value was determined as 0.084.

With B3, the “absorbance at 450nm” value turned out to be 0.098.

For the molecule B4, the “absorbance at 450nm” value amounted to 0.102.

As for B5, the “absorbance at 450nm” value was 0.068.

Take B8: the “absorbance at 450nm” value was 0.069.

On to B6, for which the “absorbance at 450nm” value turned out to be 0.116.

With B7, the “absorbance at 450nm” value stood at 0.091.

On to B9, for which the “absorbance at 450nm” value worked out at 0.09.

B10: the “absorbance at 450nm” value came to 0.054.

Take B14: the “absorbance at 450nm” value is 0.09.

Take B15: the “absorbance at 450nm” value turned out to be 0.072.

For the molecule B16, the “absorbance at 450nm” value came out at 0.054.

With B17, the “absorbance at 450nm” value is 0.067.

Regarding B18, the “absorbance at 450nm” value was 0.111.

For the molecule B19, the “absorbance at 450nm” value worked out at 0.065.
